Reference: paper PMC9022998

How the values were obtained:
[1] = cycloheximide chase, anti-FLAG immunoblot, secretion rate; conditions: glycan lost; control: wild-type AAT in WT 293T cells
[2] = immunoblot of media and lysates, LMAN1 KO vs WT 293T; conditions: glycan lost; control: wild-type AAT
[3] = immunoblot of intracellular AAT in 293T lysates; conditions: glycan lost; control: wild-type AAT

Row | Substance | expression_or_secretion [1] | other: LMAN1-dependence of secretion [2] | localisation_or_trafficking [3]
1 | α1-antitrypsin (AAT): N271Q | no change | no change | 
2 | α1-antitrypsin (AAT): N107Q | decreases | abolishes | increases
3 | α1-antitrypsin (AAT): N70Q | no change | no change | 
